Results as given in publication PMC12732243.

Biological target: human FSH receptor (human) (UniProt P23945)
Sequence (P23945 18-695): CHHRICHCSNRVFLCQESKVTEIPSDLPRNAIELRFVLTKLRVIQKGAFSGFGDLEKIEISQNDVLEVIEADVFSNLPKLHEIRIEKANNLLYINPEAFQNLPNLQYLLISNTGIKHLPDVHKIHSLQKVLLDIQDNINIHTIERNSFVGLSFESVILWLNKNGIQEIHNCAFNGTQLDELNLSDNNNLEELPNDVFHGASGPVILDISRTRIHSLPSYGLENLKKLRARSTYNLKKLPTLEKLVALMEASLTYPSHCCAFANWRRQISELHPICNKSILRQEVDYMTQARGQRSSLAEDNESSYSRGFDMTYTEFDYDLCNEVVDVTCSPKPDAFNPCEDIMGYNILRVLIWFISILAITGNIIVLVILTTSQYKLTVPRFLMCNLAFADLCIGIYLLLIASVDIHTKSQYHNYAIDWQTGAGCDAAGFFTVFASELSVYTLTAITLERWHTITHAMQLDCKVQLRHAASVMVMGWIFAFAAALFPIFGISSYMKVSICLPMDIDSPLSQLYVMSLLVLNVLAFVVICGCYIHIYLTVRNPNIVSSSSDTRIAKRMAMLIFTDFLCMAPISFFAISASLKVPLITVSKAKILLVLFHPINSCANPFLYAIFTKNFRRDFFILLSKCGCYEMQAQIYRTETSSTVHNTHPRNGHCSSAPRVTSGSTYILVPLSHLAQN

“recombinant monkey single-chain FSHβ/α (from UniProt Q6EV79 19-129; Q9BEH3 25-120) (ligand)” was tested, and the cAMP accumulation (HTRF) in HEK 293 cells expressing hFSHR, 30 min at room temperature with 0.5 mM IBMX; EC50 of the dose-response curve was 4.9 µL/mL.
